Data: patent US20250346668A1 (GENOR BIOPHARMA, published 2025)
Positions count from the first letter of the chain named. Values belong to the binder of their own block, whether it stands above or below them.

Target: T1, human CD3e/g antigen (ACRO, catalog number CDG-H52W5) (human, UniProt P07766 23-126; P09693 23-116)
T1 construct: Bought reagent used as the Biacore analyte; also called hCD3e/g
Assay: SPR (Biacore 8K), antibody captured via anti-human Fc
Procedure: The equilibrium dissociation constant of binding of CD3 antibodies to human CD3e/g antigen (purchased from ACRO, catalog number CDG-H52W5) was determined by kinetic binding method using Biacore 8K (GE) system. Through the capture method, the carboxylated dextran surface of CM5 chip was first activated with NHS (N-hydroxysuccinimide) and EDC (1-(3-dimethylaminopropyl)-3-ethylcarbodiimide hydrochloride), and then added with an anti-human IgG (Fc) antibody, the free amino group of which could form an amide bond with the activated carboxyl group, thereby being fixed on the chip surface. The anti-human IgG (Fc) antibody could bind to the Fc end of CD3 antibodies to capture the antibodies, and then a series of concentrations of antigen were added to obtain the binding and dissociation curves of antibody and antigen, and the corresponding kinetic constants were calculated by Biacore Evaluation software, as shown in the table below.

Kd: 19.7 nM | koff: 0.00624 s⁻¹ | kon: 317000 M⁻¹ s⁻¹
B1: hAb001-31 (antibody, V domains shown)
VH: QVQLVQSGAEVKKPGASVKVSCKASGYSFTNYYMHWVKQAPGQRLEWIGWTYPGNNNIKYNEKFKGRATITADTSASTAYMELSSLRSEDTAVYYCARDGYGYYFFDYWGQGTLVTVSS
VL: DIVMTQSPDSLAVSLGERATMSCKSSQSLLNNRTRKNYLAWYQQKPGQPPKLLIYWASTRESGVPDRFSGSGSGTDFTLTISSLQAEDVAVYYCKQSYTLRTFGGGTKLEIK
notes: Humanized; constant regions not specified

Kd: 8.06 nM | koff: 0.00377 s⁻¹ | kon: 468000 M⁻¹ s⁻¹
B2: hAb007-21 (antibody, V domains shown)
VH: QVQLVQSGAEVKKPGASVKVSCKASGSTFTDNYIHWVRQAPGQRLEWIGWIYPGSVNIKYNEKFKDRVTITADTSASTAYMELSSLRSEDTAVYYCARDISRYYFDYWGQGTTVTVSS
VL: B1 VL with M21I, S22N, N32S, Y98F, T99I
notes: as for B1

Kd: 11.8 nM | koff: 0.00494 s⁻¹ | kon: 420000 M⁻¹ s⁻¹
B3: hAb007-28 (antibody, V domains shown)
VH: B2 VH with V68A
VL: B1 VL with S22N, N32S, S69T, Y98F, T99I
notes: as for B1

Kd: 6.01 nM | koff: 0.00241 s⁻¹ | kon: 401000 M⁻¹ s⁻¹
B4: hAb007-18 (antibody, V domains shown)
VH: B2 VH with I48M, A72R
VL: B1 VL with M21I, S22N, N32S, S69T, Y98F, T99I
notes: as for B1

Kd: 11.1 nM | koff: 0.00375 s⁻¹ | kon: 337000 M⁻¹ s⁻¹
B5: hAb007-20 (antibody, V domains shown)
VH: B2 VH with I48M, A72R
VL: B1 VL with S22N, N32S, S69T, Y98F, T99I
notes: as for B1

Kd: 9.24 nM | koff: 0.0043 s⁻¹ | kon: 465000 M⁻¹ s⁻¹
B6: hAb007-25 (antibody, V domains shown)
VH: B2 VH with V68A
VL: B1 VL with M21I, S22N, N32S, Y98F, T99I
notes: as for B1

Kd: 5.26 nM | koff: 0.00225 s⁻¹ | kon: 427000 M⁻¹ s⁻¹
B7: hAb007-31 (antibody, V domains shown)
VH: B2 VH with R38K, V68A, S77T
VL: B1 VL with S22N, N32S, Y98F, T99I
notes: as for B1

Kd: 5.85 nM | koff: 0.00225 s⁻¹ | kon: 385000 M⁻¹ s⁻¹
B8: hAb007-17 (antibody, V domains shown)
VH: B2 VH with I48M, A72R
VL: B1 VL with M21I, S22N, N32S, Y98F, T99I
notes: as for B1

Kd: 12 nM | koff: 0.00565 s⁻¹ | kon: 470000 M⁻¹ s⁻¹
B9: hAb007-26 (antibody, V domains shown)
VH: B2 VH with V68A
VL: B1 VL with M21I, S22N, N32S, S69T, Y98F, T99I
notes: as for B1

Kd: 6.59 nM | koff: 0.0029 s⁻¹ | kon: 439000 M⁻¹ s⁻¹
B10: hAb007-23 (antibody, V domains shown)
VH: B2 VH
VL: B1 VL with S22N, N32S, Y98F, T99I
notes: as for B1

Kd: 9.85 nM | koff: 0.00415 s⁻¹ | kon: 421000 M⁻¹ s⁻¹
B11: hAb007-29 (antibody, V domains shown)
VH: B2 VH with R38K, V68A, S77T
VL: B1 VL with M21I, S22N, N32S, Y98F, T99I
notes: as for B1

Kd: 7.11 nM | koff: 0.00316 s⁻¹ | kon: 445000 M⁻¹ s⁻¹
B12: hAb007-30 (antibody, V domains shown)
VH: B2 VH with R38K, V68A, S77T
VL: B1 VL with M21I, S22N, N32S, S69T, Y98F, T99I
notes: as for B1

Kd: 13.3 nM | koff: 0.00594 s⁻¹ | kon: 446000 M⁻¹ s⁻¹
B13: hAb007-22 (antibody, V domains shown)
VH: B2 VH
VL: B1 VL with M21I, S22N, N32S, S69T, Y98F, T99I
notes: as for B1

Kd: 6.16 nM | koff: 0.00258 s⁻¹ | kon: 419000 M⁻¹ s⁻¹
B14: hAb007-24 (antibody, V domains shown)
VH: B2 VH
VL: B1 VL with S22N, N32S, S69T, Y98F, T99I
notes: as for B1

Kd: 9.32 nM | koff: 0.00317 s⁻¹ | kon: 340000 M⁻¹ s⁻¹
B15: hAb007-19 (antibody, V domains shown)
VH: B2 VH with I48M, A72R
VL: B1 VL with S22N, N32S, Y98F, T99I
notes: as for B1

Kd: 10 nM | koff: 0.00427 s⁻¹ | kon: 427000 M⁻¹ s⁻¹
B16: hAb007-27 (antibody, V domains shown)
VH: B2 VH with V68A
VL: B1 VL with S22N, N32S, Y98F, T99I
notes: as for B1

Kd: 16.8 nM | koff: 0.00497 s⁻¹ | kon: 296000 M⁻¹ s⁻¹
B17: hAb001-32 (antibody, V domains shown)
VH: B1 VH
VL: B1 VL with S69T
notes: as for B1

Kd: 7.62 nM | koff: 0.0032 s⁻¹ | kon: 419000 M⁻¹ s⁻¹
B18: hAb007-32 (antibody, V domains shown)
VH: B2 VH with R38K, V68A, S77T
VL: B1 VL with S22N, N32S, S69T, Y98F, T99I
notes: as for B1

Kd: 18.6 nM | koff: 0.00382 s⁻¹ | kon: 205000 M⁻¹ s⁻¹
B19: hAb008-21 (antibody, V domains shown)
VH: QVQLVQSGAEVKKPGASVKVSCKASGYTFTDYTVNWVRQAPGQRLEWIGYINPFNSYTKYNQKFKDRVTITADTSASTAYMELSSLRSEDTAVYYCANSVSTYWGQGTTVTVSS
VL: DVVMTQSPLSLPVTLGQPASISCKSSQSLLDSDGKTYLNWFQQRPGQSPRRLIQLVSKLNSGVPDRFSGSGSGTDFTLKISRVEAEDVGVFYCWQGTHFPRTFGGGTKLEIK
notes: as for B1

Kd: 7.57 nM | koff: 0.00126 s⁻¹ | kon: 167000 M⁻¹ s⁻¹
B20: hAb008-17 (antibody, V domains shown)
VH: B19 VH with I48M, A72R, N98R
VL: B19 VL
notes: as for B1

Kd: 20.4 nM | koff: 0.00522 s⁻¹ | kon: 256000 M⁻¹ s⁻¹
B21: hAb008-30 (antibody, V domains shown)
VH: B19 VH with R38K, V68A, Y95F
VL: B19 VL with F41L
notes: as for B1

Kd: 21.5 nM | koff: 0.00269 s⁻¹ | kon: 125000 M⁻¹ s⁻¹
B22: hAb008-24 (antibody, V domains shown)
VH: B19 VH with V68A, Y95F
VL: B19 VL with Q54Y, F91Y
notes: as for B1

Kd: 33.9 nM | koff: 0.00691 s⁻¹ | kon: 204000 M⁻¹ s⁻¹
B23: hAb008-18 (antibody, V domains shown)
VH: B19 VH with I48M, A72R, N98R
VL: B19 VL with F41L
notes: as for B1

Kd: 14.5 nM | koff: 0.00152 s⁻¹ | kon: 105000 M⁻¹ s⁻¹
B24: hAb008-20 (antibody, V domains shown)
VH: B19 VH
VL: B19 VL with Q54Y, F91Y
notes: as for B1

Kd: 36.8 nM | koff: 0.00741 s⁻¹ | kon: 202000 M⁻¹ s⁻¹
B25: hAb008-25 (antibody, V domains shown)
VH: B19 VH with V68A, Y95F
VL: B19 VL
notes: as for B1

Kd: 27.2 nM | koff: 0.00441 s⁻¹ | kon: 162000 M⁻¹ s⁻¹
B26: hAb008-28 (antibody, V domains shown)
VH: B19 VH with R38K, V68A, Y95F
VL: B19 VL with Q54Y, F91Y
notes: as for B1

Kd: 18.6 nM | koff: 0.00189 s⁻¹ | kon: 101000 M⁻¹ s⁻¹
B27: hAb008-16 (antibody, V domains shown)
VH: B19 VH with I48M, A72R, N98R
VL: B19 VL with Q54Y, F91Y
notes: as for B1

Kd: 18 nM | koff: 0.00475 s⁻¹ | kon: 264000 M⁻¹ s⁻¹
B28: hAb008-27 (antibody, V domains shown)
VH: B19 VH with V68A, Y95F
VL: B19 VL with F41L, Q42L
notes: as for B1

Kd: 17.4 nM | koff: 0.00487 s⁻¹ | kon: 280000 M⁻¹ s⁻¹
B29: hAb008-23 (antibody, V domains shown)
VH: B19 VH
VL: B19 VL with F41L, Q42L
notes: as for B1

Kd: 20.8 nM | koff: 0.00378 s⁻¹ | kon: 182000 M⁻¹ s⁻¹
B30: hAb008-29 (antibody, V domains shown)
VH: B19 VH with R38K, V68A, Y95F
VL: B19 VL
notes: as for B1

Kd: 20.6 nM | koff: 0.00588 s⁻¹ | kon: 285000 M⁻¹ s⁻¹
B31: hAb008-22 (antibody, V domains shown)
VH: B19 VH
VL: B19 VL with F41L
notes: as for B1

Kd: 15.1 nM | koff: 0.00381 s⁻¹ | kon: 252000 M⁻¹ s⁻¹
B32: hAb008-31 (antibody, V domains shown)
VH: B19 VH with R38K, V68A, Y95F
VL: B19 VL with F41L, Q42L
notes: as for B1

Kd: 26.1 nM | koff: 0.00573 s⁻¹ | kon: 219000 M⁻¹ s⁻¹
B33: hAb008-19 (antibody, V domains shown)
VH: B19 VH with I48M, A72R, N98R
VL: B19 VL with F41L, Q42L
notes: as for B1
